Starred links: 1 amine or outer side, 2 acyl side, 3 side chain; linkers in the order of their positions; H or OH if unused. Positions of bridges follow the written chain, without caps; N, C: chain ends. Non-standard residues stand in square brackets, D forms with d. Groups on a side chain read outwards from the residue. No end group written: not given here. *: point of attachment. C20 diacid = O=C(O)CCCCCCCCCCCCCCCCCCC(=O)*; C18 diacid = O=C(O)CCCCCCCCCCCCCCCCC(=O)*; 17‑carboxyheptanoyl = not defined here; γGlu = O=C(O)[C@H](CCC(=O)[*:2])N[*:1]; AEEA = NCCOCCOCC(=O)O
B1: N-alpha-[(S)-4-carboxy-4-(19-carboxynonadecanoylamino)butyryl]-Arg-pramlintide (1-37) (peptide)
peptide: {C20 diacid-γGlu}-RKCNTATCATQRLANFLVHSSNNFGPILPPTNVGSNTY-NH2
modifications: disulfide 3-8 (inferred)
B2: N-epsilon29-(19-carboxynonadecanoyl)-[Lys29]-pramlintide (1-37) (peptide)
peptide: KCNTATCATQRLANFLVHSSNNFGPILPK(C20 diacid)TNVGSNTY-NH2
modifications: disulfide 2-7 (inferred)
B3: N-epsilon1-[(S)-4-carboxy-4-(17-carboxyheptadecanoylamino)butyryl]-[Gly3,Ala17,Arg18,Ser28]-pramlintide (1-37) (peptide)
peptide: K([γGlu-C18 diacid])CGTATCATQRLANFLARSSNNFGPILSPTNVGSNTY-NH2
modifications: disulfide 2-7 (inferred)
B4: N-epsilon3-(19-carboxynonadecanoyl)-[Lys3]-pramlintide (1-37) (peptide)
peptide: KCK(C20 diacid)TATCATQRLANFLVHSSNNFGPILPPTNVGSNTY-NH2
modifications: disulfide 2-7 (inferred)
B5: N-alpha-(2-(2-(2-(19-carboxynonadecanoyl-Glu-amino)ethoxy)ethoxy)acetyl)[Glu1,Gln3,Arg18,Gln21,Leu23,Val26]-pramlintide (1-37) (peptide)
peptide: {C20 diacid}-E[AEEA]ECQTATCATQRLANFLVRSSQNLGPVLPPTNVGSNTY-NH2
modifications: disulfide 4-9 (inferred)
B6: N-alpha-(19-carboxynonadecanoyl)-Glu-Glu-Arg-[Glu1]-pramlintide (1-37) (peptide)
peptide: {C20 diacid}-EERECNTATCATQRLANFLVHSSNNFGPILPPTNVGSNTY-NH2
modifications: disulfide 5-10 (inferred)
B7: N-epsilon3-(17-carboxyheptadecanoyl)-[Lys3]-pramlintide (1-37) (peptide)
peptide: KCK(C18 diacid)TATCATQRLANFLVHSSNNFGPILPPTNVGSNTY-NH2
modifications: disulfide 2-7 (inferred)
B8: N-epsilon3-[2-(2-{2-[4-(16-1H-tetrazol-5-yl-hexadecanoylsulfamoyl) butyrylamino]ethoxy}ethoxy)acetyl]-[Lys3]pramlintide (1-37) (peptide)
peptide: KCK([AEEA-4‑(16-1H-tetrazol-5-yl-hexadecanoylsulfamoyl)butyryl])TATCATQRLANFLVHSSNNFGPILPPTNVGSNTY-NH2
modifications: disulfide 2-7 (inferred)
B9: N-alpha-(19-carboxynonadecanoyl)-Glu-Glu-Glu-[Glu1,Gln3,Arg18,Gln21,Leu23,Val26]-pramlintide (1-37) (peptide)
peptide: {C20 diacid}-EEEECQTATCATQRLANFLVRSSQNLGPVLPPTNVGSNTY-NH2
modifications: disulfide 5-10 (inferred)
B10: N-alpha-[(S)-4-carboxy-4-(19-carboxynonadecanoylamino)butyryl]-[Arg1]-pramlintide (1-37) (peptide)
peptide: {C20 diacid-γGlu}-RCNTATCATQRLANFLVHSSNNFGPILPPTNVGSNTY-NH2
modifications: disulfide 2-7 (inferred)
B11: N-alpha-(17-carboxyheptanoyl)-[Arg18,Leu23,Val26]-pramlintide (2-37) (peptide)
peptide: {17‑carboxyheptanoyl}-CNTATCATQRLANFLVRSSNNLGPVLPPTNVGSNTY-NH2
modifications: disulfide 1-6 (inferred); reading uncertain; also: printed as N-alpha-(17-carboxyheptanoyl)-[Arg18,Leu23,Val26]-pramlintide (2-37)
B12: N-alpha-(17-carboxyheptanoyl)-[Arg18]-pramlintide (1-37) (peptide)
peptide: {17‑carboxyheptanoyl}-KCNTATCATQRLANFLVRSSNNFGPILPPTNVGSNTY-NH2
modifications: disulfide 2-7 (inferred); reading uncertain; also: printed as N-alpha-(17-carboxyheptanoyl)-[Arg18]-pramlintide (1-37)
B13: N-alpha-[(S)-4-carboxy-4-(19-carboxynonadecanoylamino)butyryl]-Glu-Glu-Arg-[Glu1]-pramlintide (1-37) (peptide)
peptide: EERECNTATCATQRLANFLVHSSNNFGPILPPTNVGSNTY
modifications: N-alpha-[(S)-4-carboxy-4-(19-carboxynonadecanoylamino)butyryl] on the N-terminal Glu of the extension; disulfide bridge between the two Cys; C-terminal amide
B14: N-alpha-[(S)-4-carboxy-4-(19-carboxynonadecanoylamino)butyryl]-Arg-[Arg1]-pramlintide (1-37) (peptide)
peptide: {C20 diacid-γGlu}-RRCNTATCATQRLANFLVHSSNNFGPILPPTNVGSNTY-NH2
modifications: disulfide 3-8 (inferred)
B15: N-alpha-(4-carboxy-4-{6-[4-(16-1H-tetrazol-5-yl-hexadecanoylsulfamoyl) butyrylamino]hexanoylamino}butyryl)-Glu-Glu-Arg-[Glu1]-pramlintide (1-37) (peptide)
peptide: EERECNTATCATQRLANFLVHSSNNFGPILPPTNVGSNTY-NH2
modifications: disulfide 5-10 (inferred); not fully specified (N-terminus)
B16: N-epsilon3-(17-carboxyheptanoyl)-[Glu1,Lys3,Glu18]-pramlintide (1-37) (peptide)
peptide: ECK(17‑carboxyheptanoyl)TATCATQRLANFLVESSNNFGPILPPTNVGSNTY-NH2
modifications: disulfide 2-7 (inferred)
B17: N-alpha-(2-{2-[2-((S)-2-{(S)-4-carboxy-2-[(S)-4-carboxy-2-(19-carboxynonadecanoylamino)butyrylamino]butyrylamino}-5-guanidinopentanoylamino) … (peptide)
peptide: {C20 diacid}-EER[AEEA]ECNTATCATQRLANFLVHSSNNFGPILPPTNVGSNTY-NH2
modifications: disulfide 6-11 (inferred)
B18: N-alpha-(19-carboxynonadecanoyl)-Glu-Lys-Arg-pramlintide (1-37) (peptide)
peptide: {C20 diacid}-EKRKCNTATCATQRLANFLVHSSNNFGPILPPTNVGSNTY-NH2
modifications: disulfide 5-10 (inferred)
B19: N-epsilon3-[2-(2-{2-[2-(2-{2[(S)-4-carboxy-4-(19-carboxynonadecanoylamino) butyrylamino]ethoxy}ethoxy)acetylamino]ethoxy}ethoxy)acetyl]-[Lys3]-pramlintide … (peptide)
peptide: KCK([AEEA-AEEA-γGlu-C20 diacid])TATCATQRLANFLVHSSNNFGPILPPTNVGSNTY-NH2
modifications: disulfide 2-7 (inferred)
B20: N-alpha-[(S)-4-carboxy-4-(17-carboxyheptadecanoylamino)butyryl]-[Arg18,Leu23,Val26]-pramlintide (2-37) (peptide)
peptide: CNTATCATQRLANFLVRSSNNLGPVLPPTNVGSNTY
modifications: N-alpha-[(S)-4-carboxy-4-(17-carboxyheptadecanoylamino)butyryl] on the N-terminal Cys2; disulfide bridge between the two Cys; C-terminal amide
B21: N-alpha-(2-{2-[2-(2-{2-[2-((S)-4-Carboxy-4-{4-carboxy-4-[4-carboxy-4-(17-carboxyheptadecanoylamino)butyrylamino]butyrylamino}butyrylamino) … (peptide)
peptide: B20 peptide
modifications: N-alpha-(2-{2-[2-(2-{2-[2-((S)-4-Carboxy-4-{4-carboxy-4-[4-carboxy-4-(17-carboxyheptadecanoylamino)butyrylamino]butyrylamino}butyrylamino) ethoxy}ethoxy]acetylamino)ethoxy}ethoxy]acetyl) on the N-terminal Cys2; disulfide bridge between the two Cys; C-terminal amide
B22: N-epsilon3-(2-{2-[2-(2-{2-[2-(17-carboxyheptadecanoylamino) ethoxy]ethoxy}acetylamino)ethoxy]ethoxy}acetyl)-[Lys3]-pramlintide (1-37) (peptide)
peptide: KCK([AEEA-AEEA-C18 diacid])TATCATQRLANFLVHSSNNFGPILPPTNVGSNTY-NH2
modifications: disulfide 2-7 (inferred)
B23: N-epsilon3-(17-carboxyheptanoyl)-[Lys3,Arg18]-pramlintide (1-37) (peptide)
peptide: KCK(17‑carboxyheptanoyl)TATCATQRLANFLVRSSNNFGPILPPTNVGSNTY-NH2
modifications: disulfide 2-7 (inferred)
B24: N-epsilon3-(19-carboxynonadecanoyl-Glu-Glu-Glu-Glu) [Lys3, Arg18, Gln21, Leu23, Val26]pramlintide (1-37) (peptide)
peptide: KCK([Glu-Glu-Glu-Glu-C20 diacid])TATCATQRLANFLVRSSQNLGPVLPPTNVGSNTY-NH2
modifications: disulfide 2-7 (inferred)
B25: N-epsilon3-(2-(2-(2-(19-carboxynonadecanoyl-Glu-Glu-amino)ethoxy)ethoxy)acetyl) [Lys3, Arg18, Gln21, Leu23, Val26]pramlintide (1-37) (peptide)
peptide: KCK([AEEA-Glu-Glu-C20 diacid])TATCATQRLANFLVRSSQNLGPVLPPTNVGSNTY-NH2
modifications: disulfide 2-7 (inferred)
B26: N-epsilon3-[(S)-4-Carboxy-4-(17-carboxyheptadecanoylamino)butyryl]-[Lys3,Arg18,Gln21,Leu23,Val26]-pramlintide (1-37) (peptide)
peptide: KCK([γGlu-C18 diacid])TATCATQRLANFLVRSSQNLGPVLPPTNVGSNTY-NH2
modifications: disulfide 2-7 (inferred)
B27: N-alpha-[4-(16-1H-tetrazol-5-yl-hexadecanoylsulfamoyl)-butyryl]-Glu-Glu-Arg-[Glu1]pramlintide (1-37) (peptide)
peptide: EERECNTATCATQRLANFLVHSSNNFGPILPPTNVGSNTY-NH2
modifications: disulfide 5-10 (inferred); not fully specified (N-terminus)
B28: N-epsilon3-[2-(2-{2-[2-(2-{2-[(S)-4-carboxy-4-(17-carboxyheptadecanoylamino)butyrylamino]ethoxy}ethoxy)acetylamino]ethoxy}ethoxy)acetyl]-[Lys3,Pro18]-pramlintid … (peptide)
peptide: KCK([AEEA-AEEA-γGlu-C18 diacid])TATCATQRLANFLVPSSNNFGPILPPTNVGSNTY-NH2
modifications: disulfide 2-7 (inferred)
B29: N-epsilon25-[2-(2-{2-[2-(2-{2-[(S)-4-carboxy-4-((S)-4-carboxy-4-{(S)-4-carboxy-4-[(S)-4-carboxy-4-(17-carboxyheptadecanoylamino)butyrylamino]butyrylamino}butyry … (peptide)
peptide: KCNTATCATQRLANFLVHSSNNFGK([AEEA-AEEA-γGlu-γGlu-γGlu-γGlu-C18 diacid])ILPPTNVGSNTY-NH2
modifications: disulfide 2-7 (inferred)
B30: N-alpha-[(S)-4-carboxy-4-(19-carboxynonadecanoylamino)butyryl]-Lys-pramlintide (1-37) (peptide)
peptide: {C20 diacid-γGlu}-KKCNTATCATQRLANFLVHSSNNFGPILPPTNVGSNTY-NH2
modifications: disulfide 3-8 (inferred)
B31: N-epsilon3-[(S)-4-carboxy-4-(17-carboxyheptadecanoylamino)butyryl]-[Lys3,Pro18]-pramlintide (1-37) (peptide)
peptide: KCK([γGlu-C18 diacid])TATCATQRLANFLVPSSNNFGPILPPTNVGSNTY-NH2
modifications: disulfide 2-7 (inferred)
B32: N-alpha-(17-carboxyheptadecanoyl)-Glu-Glu-Arg-[Glu1]pramlintide (1-37) (peptide)
peptide: {C18 diacid}-EERECNTATCATQRLANFLVHSSNNFGPILPPTNVGSNTY-NH2
modifications: disulfide 5-10 (inferred)
B33: N-alpha-(19-carboxynonadecanoyl)-Glu-[Arg1]-pramlintide (1-37) (peptide)
peptide: {C20 diacid}-ERCNTATCATQRLANFLVHSSNNFGPILPPTNVGSNTY-NH2
modifications: disulfide 3-8 (inferred)
B34: N-epsilon3-{4-carboxy-4-[4-(16-1H-tetrazol-5-ylhexadecanoylsulfamoyl)butyrylamino]butyryl}-[Lys3]-pramlintide (2-37) (peptide)
peptide: CK([γGlu-4‑(16-1H-tetrazol-5-ylhexadecanoylsulfamoyl)butyryl])TATCATQRLANFLVHSSNNFGPILPPTNVGSNTY-NH2
modifications: disulfide 1-6 (inferred)
B35: N-epsilon25-[(S)-4-carboxy-4-(17-carboxyheptadecanoylamino)butyryl]-[Lys25]-pramlintide (1-37) (peptide)
peptide: KCNTATCATQRLANFLVHSSNNFGK([γGlu-C18 diacid])ILPPTNVGSNTY-NH2
modifications: disulfide 2-7 (inferred)
B36: N-epsilon3-(2-{2-[2-(2-{2-[2-((S)-4-carboxy-4-{4-carboxy-4-[4-carboxy-4-(17-carboxyheptadecanoylamino)butyrylamino]butyrylamino}butyrylamino) … (peptide)
peptide: KCK([AEEA-AEEA-γGlu-γGlu-γGlu-C18 diacid])TATCATQRLANFLVPSSNNFGPILPPTNVGSNTY-NH2
modifications: disulfide 2-7 (inferred)
B37: N-alpha-[(S)-4-carboxy-4-(19-carboxynonadecanoylamino)butyryl]-pramlintide (2-37) (peptide)
peptide: {C20 diacid-γGlu}-CNTATCATQRLANFLVHSSNNFGPILPPTNVGSNTY-NH2
modifications: disulfide 1-6 (inferred)
B38: N-alpha-(17-carboxyheptanoyl)-Glu-[Glu1]-pramlintide (1-37) (peptide)
peptide: {17‑carboxyheptanoyl}-EECNTATCATQRLANFLVHSSNNFGPILPPTNVGSNTY-NH2
modifications: disulfide 3-8 (inferred); reading uncertain; also: printed as N-alpha-(17-carboxyheptanoyl)-Glu-[Glu1]-pramlintide (1-37)
B39: N-alpha-(19-carboxynonadecanoyl)-Glu-Glu-Arg-[Glu1,Gln3,Arg18,Gln21,Leu23,Val26]-pramlintide (1-37) (peptide)
peptide: {C20 diacid}-EERECQTATCATQRLANFLVRSSQNLGPVLPPTNVGSNTY-NH2
modifications: disulfide 5-10 (inferred)

Biological target: Amylin 3(a) receptor (human calcitonin receptor (CTa) with RAMP-3) on BHK570 cells (human, UniProt P30988 25-474)
Assay: cell-based or functional assay

Sequence of Amylin 3(a) receptor (human calcitonin receptor (CTa) with RAMP-3) on BHK570 cells (P30988 25-474): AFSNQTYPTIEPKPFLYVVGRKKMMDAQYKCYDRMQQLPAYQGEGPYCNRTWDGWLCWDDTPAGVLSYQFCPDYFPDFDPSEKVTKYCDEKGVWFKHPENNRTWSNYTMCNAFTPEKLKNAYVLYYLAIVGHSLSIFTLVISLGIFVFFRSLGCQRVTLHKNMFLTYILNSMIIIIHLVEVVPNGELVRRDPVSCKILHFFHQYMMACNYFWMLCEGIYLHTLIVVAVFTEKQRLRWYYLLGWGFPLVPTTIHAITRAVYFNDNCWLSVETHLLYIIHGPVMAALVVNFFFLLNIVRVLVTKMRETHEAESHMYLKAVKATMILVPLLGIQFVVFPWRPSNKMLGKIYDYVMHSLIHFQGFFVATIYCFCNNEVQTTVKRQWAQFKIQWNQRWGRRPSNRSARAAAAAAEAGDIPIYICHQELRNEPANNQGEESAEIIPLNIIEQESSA

| Binder | Potency luciferase assay [pM] |
| --- | --- |
| B1 | 200 |
| B2 | 5000 |
| B3 | 70 |
| B4 | 50 |
| B5 | 400 |
| B6 | 80 |
| B7 | 50 |
| B8 | 100 |
| B9 | 2000 |
| B10 | 40 |
| B11 | 100 |
| B12 | 30 |
| B13 | 300 |
| B14 | 100 |
| B15 | 2000 |
| B16 | 30 |
| B17 | 400 |
| B18 | 80 |
| B19 | 300 |
| B20 | 30 |

| Binder | Potency luciferase assay [pM] |
| --- | --- |
| B21 | 900 |
| B22 | 100 |
| B23 | 60 |
| B24 | 600 |
| B25 | 300 |
| B26 | 40 |
| B27 | 90 |
| B28 | 10000 |
| B29 | 300 |
| B30 | 100 |
| B31 | 700 |
| B32 | 60 |
| B33 | 100 |
| B34 | 40 |
| B35 | 90 |
| B36 | 20000 |
| B37 | 100 |
| B38 | 400 |
| B39 | 90 |
